Measurements reported in article PMC4284226.

Target: TRPM8-mTurquoise2 (human) (UniProt Q7Z2W7)
Assay: FRET or BRET

UniProt Q7Z2W7, sequence (Q7Z2W7 2-1104): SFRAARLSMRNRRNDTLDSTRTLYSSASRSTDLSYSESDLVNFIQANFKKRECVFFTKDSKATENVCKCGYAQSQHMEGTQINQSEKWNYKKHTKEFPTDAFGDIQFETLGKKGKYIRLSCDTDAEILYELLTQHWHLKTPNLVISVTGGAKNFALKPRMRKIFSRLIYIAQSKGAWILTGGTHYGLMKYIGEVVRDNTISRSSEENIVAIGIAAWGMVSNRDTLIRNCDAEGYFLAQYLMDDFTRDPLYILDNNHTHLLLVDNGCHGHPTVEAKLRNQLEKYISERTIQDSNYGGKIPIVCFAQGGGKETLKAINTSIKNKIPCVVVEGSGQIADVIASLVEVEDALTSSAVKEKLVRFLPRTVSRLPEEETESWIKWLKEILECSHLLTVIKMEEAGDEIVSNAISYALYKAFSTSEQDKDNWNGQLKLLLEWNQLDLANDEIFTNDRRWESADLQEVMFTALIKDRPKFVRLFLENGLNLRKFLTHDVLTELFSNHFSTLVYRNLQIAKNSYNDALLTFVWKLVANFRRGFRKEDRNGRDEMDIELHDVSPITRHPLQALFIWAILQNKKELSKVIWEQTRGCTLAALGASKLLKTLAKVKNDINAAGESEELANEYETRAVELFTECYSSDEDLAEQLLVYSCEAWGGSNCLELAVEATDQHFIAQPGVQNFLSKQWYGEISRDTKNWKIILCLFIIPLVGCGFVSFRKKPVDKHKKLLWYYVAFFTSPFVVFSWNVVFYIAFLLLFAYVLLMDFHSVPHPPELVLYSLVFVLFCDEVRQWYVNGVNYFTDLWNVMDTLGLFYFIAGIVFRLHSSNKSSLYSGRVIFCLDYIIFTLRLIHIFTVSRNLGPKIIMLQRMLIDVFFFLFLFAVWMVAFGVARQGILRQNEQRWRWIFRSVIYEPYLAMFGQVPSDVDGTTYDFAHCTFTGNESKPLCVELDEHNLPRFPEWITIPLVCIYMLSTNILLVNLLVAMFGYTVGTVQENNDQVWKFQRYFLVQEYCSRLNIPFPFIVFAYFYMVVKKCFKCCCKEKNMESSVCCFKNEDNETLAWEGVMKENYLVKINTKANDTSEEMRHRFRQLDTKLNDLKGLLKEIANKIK

free SYFP2 protein
E FRET: < 1%
